Measured values published in IntAct's records for PubMed 23260139.

Target: vinc_mouse Vcl (UniProt Q64727)
Sequence (Q64727 whole entry): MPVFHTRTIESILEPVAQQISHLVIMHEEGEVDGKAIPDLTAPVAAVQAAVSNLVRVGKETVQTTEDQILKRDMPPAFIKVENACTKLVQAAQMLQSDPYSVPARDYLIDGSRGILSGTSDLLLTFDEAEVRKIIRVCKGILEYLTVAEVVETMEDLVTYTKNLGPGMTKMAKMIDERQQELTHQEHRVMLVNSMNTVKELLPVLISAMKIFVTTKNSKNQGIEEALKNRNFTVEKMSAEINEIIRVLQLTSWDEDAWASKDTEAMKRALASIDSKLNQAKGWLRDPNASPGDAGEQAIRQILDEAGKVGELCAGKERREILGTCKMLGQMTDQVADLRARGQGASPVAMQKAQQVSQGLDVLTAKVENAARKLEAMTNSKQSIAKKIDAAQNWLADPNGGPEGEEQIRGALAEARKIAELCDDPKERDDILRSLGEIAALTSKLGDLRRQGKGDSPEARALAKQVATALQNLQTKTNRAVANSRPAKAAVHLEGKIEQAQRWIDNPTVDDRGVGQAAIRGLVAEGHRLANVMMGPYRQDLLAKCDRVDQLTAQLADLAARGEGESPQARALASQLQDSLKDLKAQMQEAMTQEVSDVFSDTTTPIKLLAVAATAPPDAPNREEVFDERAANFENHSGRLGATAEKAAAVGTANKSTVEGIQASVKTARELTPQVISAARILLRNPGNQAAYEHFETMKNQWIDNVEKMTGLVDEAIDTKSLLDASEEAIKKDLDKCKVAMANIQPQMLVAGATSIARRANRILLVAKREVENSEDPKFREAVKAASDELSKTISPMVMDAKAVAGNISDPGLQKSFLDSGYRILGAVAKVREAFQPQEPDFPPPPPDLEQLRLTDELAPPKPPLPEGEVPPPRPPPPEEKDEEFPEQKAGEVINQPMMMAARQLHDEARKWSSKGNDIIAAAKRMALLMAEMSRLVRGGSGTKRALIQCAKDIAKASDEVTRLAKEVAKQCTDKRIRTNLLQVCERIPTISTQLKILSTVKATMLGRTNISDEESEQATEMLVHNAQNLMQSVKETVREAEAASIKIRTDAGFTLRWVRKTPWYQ

Sequence of Paxillin (Gallus gallus (Chicken)), P49024 E151Q (P49024 whole entry E151Q): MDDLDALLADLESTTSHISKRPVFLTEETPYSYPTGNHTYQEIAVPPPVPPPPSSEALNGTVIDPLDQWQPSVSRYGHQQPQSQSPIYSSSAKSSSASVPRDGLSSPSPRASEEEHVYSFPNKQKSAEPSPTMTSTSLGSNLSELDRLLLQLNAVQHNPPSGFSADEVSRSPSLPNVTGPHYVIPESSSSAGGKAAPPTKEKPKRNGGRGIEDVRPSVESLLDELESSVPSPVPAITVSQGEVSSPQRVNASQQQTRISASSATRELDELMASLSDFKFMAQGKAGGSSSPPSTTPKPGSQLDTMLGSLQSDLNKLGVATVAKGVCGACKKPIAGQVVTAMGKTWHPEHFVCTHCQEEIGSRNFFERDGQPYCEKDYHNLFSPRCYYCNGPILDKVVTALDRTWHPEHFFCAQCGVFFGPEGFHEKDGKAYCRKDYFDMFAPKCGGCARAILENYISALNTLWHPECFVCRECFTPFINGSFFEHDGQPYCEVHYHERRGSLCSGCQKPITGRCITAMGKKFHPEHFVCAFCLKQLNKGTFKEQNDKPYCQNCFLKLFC

effect of a mutation on the interaction: decreasing interaction strength
Substance: Paxillin (Gallus gallus (Chicken)), P49024 E151Q
